Source: FireProtDB (doi:10.1002/pro.342)

B1: Regulatory protein rop, P03051 (parent)
chain: MTKQEKTALNMARFIRSQTLTLLEKLNELDADEQADICESLHDHADELYRSCLARFGDDGENL

Variants of: B1
Details: Escherichia coli, pH 6.3, CD, Phosphate 50 mM, NaCl 300 mM, structure 1ROP, whole UniProt chain shown; for Tm / change of melting temperature, mutant - wild type (higher = more stable) / heat capacity change of unfolding / unfolding enthalpy (van 't Hoff): Thermal

C38A C52A
Tm: 56 °C | change of melting temperature, mutant - wild type (higher = more stable): -14 °C | heat capacity change of unfolding: 1.1 kcal/mol/K | unfolding enthalpy (van 't Hoff): 65 kcal/mol | ddG of mutation (higher = less stable) (Urea): 8.3 kcal/mol | denaturant m value (Urea): 0.9 kcal/mol/M | denaturant midpoint (higher = more stable) (Urea): 2.3 M | unfolding free energy (Urea): 7.7 kcal/mol

C38A C52V
Tm: 74 °C | change of melting temperature, mutant - wild type (higher = more stable): 4 °C | heat capacity change of unfolding: 1.1 kcal/mol/K | unfolding enthalpy (van 't Hoff): 65 kcal/mol | denaturant m value (Urea): 1.3 kcal/mol/M | denaturant midpoint (higher = more stable) (Urea): 4.1 M | unfolding free energy (Urea): 11 kcal/mol
